Source: paper PMC9352680, “A comprehensive thermodynamic model for RNA binding by the Saccharomyces cerevisiae Pumilio protein PUF4”
Where a chain is given by its changes, count along the chain named. Names may count otherwise.

T1: PUF4 RNA-binding domain (Saccharomyces cerevisiae, UniProt P25339 537-888)
T1 sequence: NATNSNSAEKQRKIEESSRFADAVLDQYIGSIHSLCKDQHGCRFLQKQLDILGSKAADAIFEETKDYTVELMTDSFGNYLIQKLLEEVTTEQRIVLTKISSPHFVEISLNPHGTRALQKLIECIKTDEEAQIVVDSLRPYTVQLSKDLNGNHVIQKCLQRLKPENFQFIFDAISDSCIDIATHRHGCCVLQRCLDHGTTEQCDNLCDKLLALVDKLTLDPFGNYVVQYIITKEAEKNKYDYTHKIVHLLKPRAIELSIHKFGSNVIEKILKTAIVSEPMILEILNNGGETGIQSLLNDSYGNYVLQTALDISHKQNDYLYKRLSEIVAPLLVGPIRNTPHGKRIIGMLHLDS

B1: Ic_S2_P4E.1_K4.1_C4.1_H4.1_A4.1_[T5C]_[A6T]_[T7G]_F4.1_[T8G]_[A9T]_T4.1 (ssRNA)
RNA: UUUGAUUAAUAUGAUAUCGUUCUUUCUUGUACUGGUUUCUUUCUCGAUAUCAUAUUAAUCUUU
B2: Ic_S2_P4E.1_K4.1_C4.1_H4.1_A4.1_[T5C]_[A6C]_[T7A]_F4.1_[T8C]_[A9G]_T4.1 (ssRNA)
RNA: B1 RNA with U33C, G34A, G35C, U36G
B3: Ic_S2_P4E.1_K4.1_C4.1_H4.1_A4.1_[T5C]_[A6T]_[T7A]_F4.1_[T8C]_T4.1 (ssRNA)
RNA: B1 RNA with G34A, G35C, U36A
B4: Ic_S2_P4E.1_K4.1_C4.1_H4.1_A4.1_[T5C]_[A6T]_[T7C]_F4.1_[T8C]_[A9C]_T4.1 (ssRNA)
RNA: B1 RNA with G34C, G35C, U36C
B5: Ic_S2_P4E.1_K4.1_C4.1_H4.1_A4.1_[T5C]_[A6G]_F4.1_[A9T]_T4.1 (ssRNA)
RNA: B1 RNA with U33G, G34U, G35U
B6: Ic_S2_P4E.1_K4.1_C4.1_H4.1_A4.1_[T5C]_[A6T]_[T7A]_F4.1_[A9C]_T4.1 (ssRNA)
RNA: B1 RNA with G34A, G35U, U36C
B7: Ic_S2_P4E.1_K4.1_C4.1_H4.1_A4.1_[T5C]_[A6C]_[T7G]_F4.1_[T8C]_[A9T]_T4.1 (ssRNA)
RNA: B1 RNA with U33C, G35C
B8: Ic_S2_P4E.1_K4.1_C4.1_H4.1_A4.1_[T5C]_[A6T]_[T7G]_F4.1_[T8C]_T4.1 (ssRNA)
RNA: B1 RNA with G35C, U36A
B9: Ic_S2_P4E.1_K4.1_C4.1_H4.1_A4.1_[T5C]_[A6C]_[T7C]_F4.1_[T8G]_[A9G]_T4.1 (ssRNA)
RNA: B1 RNA with U33C, G34C, U36G
B10: Ic_S2_P4E.1_K4.1_C4.1_H4.1_A4.1_[T5C]_[A6C]_[T7A]_F4.1_[T8A]_[A9C]_T4.1 (ssRNA)
RNA: B1 RNA with U33C, G34A, G35A, U36C
B11: Ic_S2_P4E.1_K4.1_C4.1_H4.1_A4.1_[T5C]_[A6T]_[T7G]_F4.1_T4.1 (ssRNA)
RNA: B1 RNA with G35U, U36A
B12: Ic_S2_P4E.1_K4.1_C4.1_H4.1_A4.1_[T5C]_[A6C]_F4.1_[A9G]_T4.1 (ssRNA)
RNA: B1 RNA with U33C, G34U, G35U, U36G
B13: Ic_S2_P4E.1_K4.1_C4.1_H4.1_A4.1_[T5C]_[A6C]_F4.1_[A9C]_T4.1 (ssRNA)
RNA: B1 RNA with U33C, G34U, G35U, U36C
B14: Ic_S2_P4E.1_K4.1_C4.1_H4.1_A4.1_[T5C]_[A6C]_F4.1_[T8C]_[A9G]_T4.1 (ssRNA)
RNA: B1 RNA with U33C, G34U, G35C, U36G
B15: Ic_S2_P4E.1_K4.1_C4.1_H4.1_A4.1_[T5C]_[A6C]_[T7C]_F4.1_[T8G]_[A9C]_T4.1 (ssRNA)
RNA: B1 RNA with U33C, G34C, U36C
B16: Ic_S2_P4E.1_K4.1_C4.1_H4.1_A4.1_[T5C]_[A6T]_[T7C]_F4.1_T4.1 (ssRNA)
RNA: B1 RNA with G34C, G35U, U36A
B17: Ic_S2_P4E.1_K4.1_C4.1_H4.1_A4.1_[T5C]_[A6C]_[T7C]_F4.1_[A9T]_T4.1 (ssRNA)
RNA: B1 RNA with U33C, G34C, G35U
B18: Ic_S2_P4E.1_K4.1_C4.1_H4.1_A4.1_[T5C]_[A6C]_F4.1_[T8A]_[A9G]_T4.1 (ssRNA)
RNA: B1 RNA with U33C, G34U, G35A, U36G
B19: Ic_S2_P4E.1_K4.1_C4.1_H4.1_A4.1_[T5C]_[A6C]_F4.1_[T8C]_T4.1 (ssRNA)
RNA: B1 RNA with U33C, G34U, G35C, U36A
B20: Ic_S2_P4E.1_K4.1_C4.1_H4.1_A4.1_[T5C]_[A6C]_[T7A]_F4.1_[T8C]_T4.1 (ssRNA)
RNA: B1 RNA with U33C, G34A, G35C, U36A
B21: Ic_S2_P4E.1_K4.1_C4.1_H4.1_A4.1_[T5C]_[A6T]_[T7G]_F4.1_[A9T]_T4.1 (ssRNA)
RNA: B1 RNA with G35U
B22: Ic_S2_P4E.1_K4.1_C4.1_H4.1_A4.1_[T5C]_[A6T]_[T7A]_F4.1_[T8A]_[A9C]_T4.1 (ssRNA)
RNA: B1 RNA with G34A, G35A, U36C
B23: Ic_S2_P4E.1_K4.1_C4.1_H4.1_A4.1_[T5C]_[A6C]_[T7A]_F4.1_[A9C]_T4.1 (ssRNA)
RNA: B1 RNA with U33C, G34A, G35U, U36C
B24: Ic_S2_P4E.1_K4.1_C4.1_H4.1_A4.1_[T5C]_[A6G]_F4.1_[T8C]_T4.1 (ssRNA)
RNA: B1 RNA with U33G, G34U, G35C, U36A
B25: Ic_S2_P4E.1_K4.1_C4.1_H4.1_A4.1_[T5C]_[A6T]_[T7G]_F4.1_[T8C]_[A9C]_T4.1 (ssRNA)
RNA: B1 RNA with G35C, U36C
B26: Ic_S2_P4E.1_K4.1_C4.1_H4.1_A4.1_[T5C]_[A6C]_[T7G]_F4.1_[T8A]_[A9C]_T4.1 (ssRNA)
RNA: B1 RNA with U33C, G35A, U36C
B27: Ic_S2_P4E.1_K4.1_C4.1_H4.1_A4.1_[T5C]_[A6C]_[T7C]_F4.1_[A9G]_T4.1 (ssRNA)
RNA: B1 RNA with U33C, G34C, G35U, U36G

Biological target: T1, PUF4 RNA-binding domain
Assay: Mg; RNA-MaP; 20 mM Na-HEPES pH 7.4, 30 mM KOAc, 0.75 mM MgCl2, 0.1% Tween-20, 5% glycerol, 0.1 mg/mL BSA, 2 mM DTT; 25 C; 0.0125-409.6 nM protein
Conditions: tags: N-His6-TEV cleaved; C-SNAP kept, Cy3B-labelled; label: tethered on chip by stalled RNA polymerase

| Binder | Kd [nM] |
| --- | --- |
| B1 | 966 |
| B2 | 271 |
| B3 | 353 |
| B4 | 242 |
| B5 | 19.6 |
| B6 | 9.16 |
| B7 | 154 |
| B8 | 753 |
| B9 | 844 |
| B10 | 712 |
| B11 | 2.61 |
| B12 | 14 |
| B13 | 21.5 |
| B14 | 54.9 |
| B15 | 1580 |
| B16 | 0.967 |
| B17 | 14.4 |
| B18 | 77.3 |
| B19 | 44.1 |
| B20 | 162 |
| B21 | 28.6 |
| B22 | 519 |
| B23 | 9.15 |
| B24 | 117 |
| B25 | 467 |
| B26 | 936 |
| B27 | 20.2 |
| UCUCUUUGUUUUUAUCUCUU (ssRNA) [Ib_S1_P3E.1_K3.1_C3.1_H3.1_[A4T]_A3.1_[A6T]_F3.1_T3.1] | 1670 |
| UCUCUUUGUGUUUAUCUCUU (ssRNA) [Ib_S1_P3E.1_K3.1_C3.1_H3.1_[A4G]_A3.1_[A6T]_F3.1_T3.1] | 549 |
